The values below come from IntAct's records for PubMed 21390248.

The chains are these.
B1: 14-3-3 protein gamma (Mus musculus), P61982 (parent)
chain: MVDREQLVQKARLAEQAERYDDMAAAMKNVTELNEPLSNEERNLLSVAYKNVVGARRSSWRVISSIEQKTSADGNEKKIEMVRAYREKIEKELEAVCQDVLSLLDNYLIKNCSETQYESKVFYLKMKGDYYRYLAEVATGEKRATVVESSEKAYSEAHEISKEHMQPTHPIRLGLALNYSVFYYEIQNAPEQACHLAKTAFDDAIAELDTLNEDSYKDSTLIMQLLRDNLTLWTSDQQDDDGGEGNN

In this assay the parent is B1. The conditions noted are these: with lrrk2_mouse Lrrk2, Q5S006.
Sequence of lrrk2_mouse Lrrk2, Q5S006 (Q5S006 whole entry): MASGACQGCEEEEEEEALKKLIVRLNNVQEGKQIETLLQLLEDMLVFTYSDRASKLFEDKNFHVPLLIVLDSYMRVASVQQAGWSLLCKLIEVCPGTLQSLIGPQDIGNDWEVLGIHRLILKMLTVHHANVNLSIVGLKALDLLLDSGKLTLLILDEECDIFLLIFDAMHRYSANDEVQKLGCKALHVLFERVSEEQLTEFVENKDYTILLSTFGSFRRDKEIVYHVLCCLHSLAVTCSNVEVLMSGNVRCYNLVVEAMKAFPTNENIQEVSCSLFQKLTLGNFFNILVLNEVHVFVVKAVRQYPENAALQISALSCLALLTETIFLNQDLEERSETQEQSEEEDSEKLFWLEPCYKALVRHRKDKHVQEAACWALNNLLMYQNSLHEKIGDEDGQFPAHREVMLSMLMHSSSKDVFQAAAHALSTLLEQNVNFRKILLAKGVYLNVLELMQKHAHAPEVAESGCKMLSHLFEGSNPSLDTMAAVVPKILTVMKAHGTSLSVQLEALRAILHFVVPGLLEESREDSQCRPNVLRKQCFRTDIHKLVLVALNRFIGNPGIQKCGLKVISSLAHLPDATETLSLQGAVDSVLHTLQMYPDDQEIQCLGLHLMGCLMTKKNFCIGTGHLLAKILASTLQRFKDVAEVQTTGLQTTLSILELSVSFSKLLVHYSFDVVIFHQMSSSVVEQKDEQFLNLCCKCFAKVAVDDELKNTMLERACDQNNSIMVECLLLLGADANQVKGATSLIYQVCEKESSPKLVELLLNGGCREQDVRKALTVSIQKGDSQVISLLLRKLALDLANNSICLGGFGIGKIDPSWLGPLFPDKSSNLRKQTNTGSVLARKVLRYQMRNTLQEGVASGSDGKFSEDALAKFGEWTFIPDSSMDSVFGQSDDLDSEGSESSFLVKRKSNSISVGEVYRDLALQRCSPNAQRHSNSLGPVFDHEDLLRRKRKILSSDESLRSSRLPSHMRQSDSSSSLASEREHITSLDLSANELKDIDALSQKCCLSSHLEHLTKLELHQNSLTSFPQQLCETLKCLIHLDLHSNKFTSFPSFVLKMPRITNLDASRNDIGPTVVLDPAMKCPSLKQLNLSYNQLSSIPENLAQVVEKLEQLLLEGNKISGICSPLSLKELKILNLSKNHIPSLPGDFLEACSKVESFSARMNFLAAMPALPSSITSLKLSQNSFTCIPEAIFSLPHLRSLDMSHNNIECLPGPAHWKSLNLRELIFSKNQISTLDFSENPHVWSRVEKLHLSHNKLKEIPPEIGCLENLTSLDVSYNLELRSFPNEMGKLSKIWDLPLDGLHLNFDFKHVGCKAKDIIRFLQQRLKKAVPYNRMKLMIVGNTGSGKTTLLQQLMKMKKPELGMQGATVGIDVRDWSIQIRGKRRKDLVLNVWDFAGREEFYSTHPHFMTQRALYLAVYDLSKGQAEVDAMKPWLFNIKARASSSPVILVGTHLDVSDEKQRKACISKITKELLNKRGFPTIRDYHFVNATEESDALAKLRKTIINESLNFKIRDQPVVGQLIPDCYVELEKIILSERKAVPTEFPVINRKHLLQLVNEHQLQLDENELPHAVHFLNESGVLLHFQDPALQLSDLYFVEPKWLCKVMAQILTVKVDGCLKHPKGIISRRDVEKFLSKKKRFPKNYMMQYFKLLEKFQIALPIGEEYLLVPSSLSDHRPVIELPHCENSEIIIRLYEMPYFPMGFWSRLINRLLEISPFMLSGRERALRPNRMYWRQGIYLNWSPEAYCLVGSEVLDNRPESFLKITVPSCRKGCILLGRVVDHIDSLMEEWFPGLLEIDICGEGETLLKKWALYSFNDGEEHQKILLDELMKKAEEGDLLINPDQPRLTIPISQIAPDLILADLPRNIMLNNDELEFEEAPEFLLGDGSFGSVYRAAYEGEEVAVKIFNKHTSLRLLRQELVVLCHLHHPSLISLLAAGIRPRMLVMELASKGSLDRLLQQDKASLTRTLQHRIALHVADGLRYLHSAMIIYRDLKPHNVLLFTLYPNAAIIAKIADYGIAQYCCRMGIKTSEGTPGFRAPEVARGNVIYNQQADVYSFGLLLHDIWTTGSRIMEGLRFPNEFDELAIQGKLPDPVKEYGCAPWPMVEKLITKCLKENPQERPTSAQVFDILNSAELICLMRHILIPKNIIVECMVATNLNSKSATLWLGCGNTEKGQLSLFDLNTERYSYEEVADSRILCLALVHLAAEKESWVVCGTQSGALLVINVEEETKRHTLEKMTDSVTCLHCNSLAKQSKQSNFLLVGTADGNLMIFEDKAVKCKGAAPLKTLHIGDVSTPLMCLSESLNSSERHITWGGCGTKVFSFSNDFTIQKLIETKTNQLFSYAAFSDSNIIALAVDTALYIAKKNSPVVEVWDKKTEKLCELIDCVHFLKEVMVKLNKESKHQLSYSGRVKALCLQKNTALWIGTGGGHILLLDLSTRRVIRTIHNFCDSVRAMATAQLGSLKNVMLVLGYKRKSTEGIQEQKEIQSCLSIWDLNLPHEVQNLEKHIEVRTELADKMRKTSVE
With V181D, the “effect of a mutation on the interaction” value is “disrupting interaction”. Then K50E, with “disrupting interaction”.
